Measured values taken from PMC2917394.

Target: Fluorescein-labeled CD4 tail peptide (residue 403-419)
Assay: other fluorescence titration; 1.0 uM fluorescein-labeled CD4 tail peptide in PBS, stirred cuvette, 25 C, 30 min incubation with Nef-His proteins at 0.01 to 10 uM in 0.5 ml; quenching of emission (excitation 492 nm, emission 516 nm) as percent reduction, average of three measurements

Substance | percent quench of the peptide's fluorescence at 10 uM Nef-His
Nef (C55/A)-His, untreated (natural protein) | 10.6%
Nef (wt)-His, unmodified (natural protein) | 11.6%
TPCK-modified Nef-His (natural protein) | 4.9%
TPCK-treated Nef (C55/A)-His (natural protein) | 9.8%
